IntAct's records for PubMed 18676636

B1: Forkhead box protein C1 (Homo sapiens), Q12948 (parent)
chain: MQARYSVSSPNSLGVVPYLGGEQSYYRAAAAAAGGGYTAMPAPMSVYSHPAHAEQYPGGMARAYGPYTPQPQPKDMVKPPYSYIALITMAIQNAPDKKITLNGIYQFIMDRFPFYRDNKQGWQNSIRHNLSLNECFVKVPRDDKKPGKGSYWTLDPDSYNMFENGSFLRRRRRFKKKDAVKDKEEKDRLHLKEPPPPGRQPPPAPPEQADGNAPGPQPPPVRIQDIKTENGTCPSPPQPLSPAAALGSGSAAAVPKIESPDSSSSSLSSGSSPPGSLPSARPLSLDGADSAPPPPAPSAPPPHHSQGFSVDNIMTSLRGSPQSAAAELSSGLLASAAASSRAGIAPPLALGAYSPGQSSLYSSPCSQTSSAGSSGGGGGGAGAAGGAGGAGTYHCNLQAMSLYAAGERGGHLQGAPGGAGGSAVDDPLPDYSLPPVTSSSSSSLSHGGGGGGGGGGQEAGHHPAAHQGRLTSWYLNQAGGDLGHLASAAAAAAAAGYPGQQQNFHSVREMFESQRIGLNNSPVNGNSSCQMAFPSSQSLYRTSGAFVYDCSKF

Variants of: B1
Conditions: with C1QBP

effect of a mutation on the interaction	Variant
disrupting interaction	MQARYSVSSPNSLGVVPYLGGEQSYYRAAAAAAGGGYTAMPAPMSVYSHPAHAEQYPGGMARAYGPYTPQPQPKDMVKPPYSYIALITMAIQNAPDKKITLNGIYQFIMDRSPFYRDNKQGWQNSIRHNLSLNECFVKVPRDDKKPGKGSYWTLDPDSYNMFENGSFLRRRRRFKKKDAVKDKEEKDRLHLKEPPPPGRQPPPAPPEQADGNAPGPQPPPVRIQDIKTENGTCPSPPQPLSPAAALGSGSAAAVPKIESPDSSSSSLSSGSSPPGSLPSARPLSLDGADSAPPPPAPSAPPPHHSQGFSVDNIMTSLRGSPQSAAAELSSGLLASAAASSRAGIAPPLALGAYSPGQSSLYSSPCSQTSSAGSSGGGGGGAGAAGGAGGAGTYHCNLQAMSLYAAGERGGHLQGAPGGAGGSAVDDPLPDYSLPPVTSSSSSSLSHGGGGGGGGGGQEAGHHPAAHQGRLTSWYLNQAGGDLGHLASAAAAAAAAGYPGQQQNFHSVREMFESQRIGLNNSPVNGNSSCQMAFPSSQSLYRTSGAFVYDCSKF [F112S]
